First the molecules themselves.
B1: GpH7-A5/GpH7-B3 variant S298_04F/GpL16-k0 (antibody, human IgG1, kappa)
heavy 1: not shown
heavy 2: not shown
light: DIVMTQSPLSLPVTPGEPASISCQASESLVHSNRNTYLHWYLQKPGQSPQLLIYKVSNRFSGVPDRFSGSGSGTDFTLKISRVEAEDVGVYYCSQNTHVPPTFGQGTKVEIERTVAAPSVFIFPPSDEQLKSGTASVVCLLNNFYPREAKVQWKVDNALQSGNSQESVTEQDSKDSTYSLSSTLTLSKADYEKHKVYACEVTHQGLSSPVTKSFNRGEC
notes: heterodimerized anti-glypican-3 IgG1; alteration in one H chain only; also called He Ab
B2: GpH7-A5/GpH7-B3 variant Y296_03V/GpL16-k0 (antibody, human IgG1, kappa)
heavy 1: not shown
heavy 2: not shown
light: B1 light
notes: as for B1
B3: GpH7-A5/GpH7-B3 variant Y296_05P/GpL16-k0 (antibody, human IgG1, kappa)
heavy 1: not shown
heavy 2: not shown
light: B1 light
notes: as for B1
B4: GpH7-A5/GpH7-B3 variant Y296_01G/GpL16-k0 (antibody, human IgG1, kappa)
heavy 1: not shown
heavy 2: not shown
light: B1 light
notes: as for B1
B5: GpH7-A5/GpH7-B3 variant V266_16H/GpL16-k0 (antibody, human IgG1, kappa)
heavy 1: not shown
heavy 2: not shown
light: B1 light
notes: as for B1
B6: GpH7-A5/GpH7-B3 variant Y296_12R/GpL16-k0 (antibody, human IgG1, kappa)
heavy 1: not shown
heavy 2: not shown
light: B1 light
notes: as for B1
B7: GpH7-A5/GpH7-B3 variant S298_07I/GpL16-k0 (antibody, human IgG1, kappa)
heavy 1: not shown
heavy 2: not shown
light: B1 light
notes: as for B1
B8: GpH7-A5/GpH7-B3 variant Y296_11K/GpL16-k0 (antibody, human IgG1, kappa)
heavy 1: not shown
heavy 2: not shown
light: B1 light
notes: as for B1
B9: GpH7-A5/GpH7-B3 variant S298_09D/GpL16-k0 (antibody, human IgG1, kappa)
heavy 1: not shown
heavy 2: not shown
light: B1 light
notes: as for B1
B10: GpH7-A5/GpH7-B3 variant S298_05P/GpL16-k0 (antibody, human IgG1, kappa)
heavy 1: not shown
heavy 2: not shown
light: B1 light
notes: as for B1
B11: GpH7-B3 variant T335_04F/GpL16-k0 (antibody, human IgG1, kappa)
heavy: not shown
light: B1 light
notes: homodimerized IgG1, mutation in both H chains; also called Ho Ab
B12: GpH7-B3 variant I336_13S/GpL16-k0 (antibody, human IgG1, kappa)
heavy: not shown
light: B1 light
notes: as for B11
B13: GpH7-B3 variant S337_15Y/GpL16-k0 (antibody, human IgG1, kappa)
heavy: not shown
light: B1 light
notes: as for B11
B14: GpH7-B3 variant S337_10E/GpL16-k0 (antibody, human IgG1, kappa)
heavy: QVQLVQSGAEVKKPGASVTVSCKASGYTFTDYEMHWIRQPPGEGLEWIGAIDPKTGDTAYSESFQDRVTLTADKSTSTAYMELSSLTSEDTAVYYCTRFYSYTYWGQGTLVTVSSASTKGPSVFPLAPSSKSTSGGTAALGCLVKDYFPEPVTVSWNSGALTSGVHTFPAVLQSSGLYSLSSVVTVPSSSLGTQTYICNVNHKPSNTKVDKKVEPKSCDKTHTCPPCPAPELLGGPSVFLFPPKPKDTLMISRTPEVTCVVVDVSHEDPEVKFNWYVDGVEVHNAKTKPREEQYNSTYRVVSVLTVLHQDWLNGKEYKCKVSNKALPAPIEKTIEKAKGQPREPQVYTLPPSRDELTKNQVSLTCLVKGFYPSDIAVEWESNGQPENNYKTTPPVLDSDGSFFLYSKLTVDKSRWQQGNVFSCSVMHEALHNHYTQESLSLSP
light: B1 light
notes: as for B11
B15: GpH7-B3 variant I336_14T/GpL16-k0 (antibody, human IgG1, kappa)
heavy: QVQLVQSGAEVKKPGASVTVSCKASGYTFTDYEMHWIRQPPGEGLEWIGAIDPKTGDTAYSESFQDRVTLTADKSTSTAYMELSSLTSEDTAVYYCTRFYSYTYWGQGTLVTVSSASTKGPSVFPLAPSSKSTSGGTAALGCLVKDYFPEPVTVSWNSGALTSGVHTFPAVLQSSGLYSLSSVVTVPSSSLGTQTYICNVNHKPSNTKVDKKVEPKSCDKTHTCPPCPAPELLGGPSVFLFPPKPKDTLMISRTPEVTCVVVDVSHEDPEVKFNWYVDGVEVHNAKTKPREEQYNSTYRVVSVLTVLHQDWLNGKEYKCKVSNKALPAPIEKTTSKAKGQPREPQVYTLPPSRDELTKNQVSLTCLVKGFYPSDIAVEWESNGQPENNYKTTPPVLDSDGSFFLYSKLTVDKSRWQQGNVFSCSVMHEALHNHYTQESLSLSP
light: B1 light
notes: as for B11
B16: GpH7-B3 variant T335_06M/GpL16-k0 (antibody, human IgG1, kappa)
heavy: not shown
light: B1 light
notes: as for B11
B17: GpH7-B3 variant T335_11K/GpL16-k0 (antibody, human IgG1, kappa)
heavy: not shown
light: B1 light
notes: as for B11
B18: GpH7-B3 variant H268_13S/GpL16-k0 (antibody, human IgG1, kappa)
heavy: not shown
light: B1 light
notes: as for B11
B19: GpH7-B3 variant I336_12R/GpL16-k0 (antibody, human IgG1, kappa)
heavy: not shown
light: B1 light
notes: as for B11
B20: GpH7-B3 variant A330_10E/GpL16-k0 (antibody, human IgG1, kappa)
heavy: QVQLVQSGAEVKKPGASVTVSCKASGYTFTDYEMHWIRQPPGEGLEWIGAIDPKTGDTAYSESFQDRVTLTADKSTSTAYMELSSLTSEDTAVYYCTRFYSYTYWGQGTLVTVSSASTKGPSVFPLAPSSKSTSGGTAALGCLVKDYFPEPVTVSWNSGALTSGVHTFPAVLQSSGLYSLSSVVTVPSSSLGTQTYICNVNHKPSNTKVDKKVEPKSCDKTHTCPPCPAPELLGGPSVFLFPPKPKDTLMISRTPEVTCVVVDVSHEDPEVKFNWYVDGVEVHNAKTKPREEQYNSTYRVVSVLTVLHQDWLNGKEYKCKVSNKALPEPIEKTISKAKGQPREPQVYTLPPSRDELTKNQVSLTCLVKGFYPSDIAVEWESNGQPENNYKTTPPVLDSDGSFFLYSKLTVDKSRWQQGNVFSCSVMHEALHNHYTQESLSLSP
light: B1 light
notes: as for B11
B21: GpH7-B3 variant H268_10E/GpL16-k0 (antibody, human IgG1, kappa)
heavy: not shown
light: B1 light
notes: as for B11
B22: GpH7-B3 variant S337_19Q/GpL16-k0 (antibody, human IgG1, kappa)
heavy: not shown
light: B1 light
notes: as for B11
B23: GpH7-B3 variant A330_20W/GpL16-k0 (antibody, human IgG1, kappa)
heavy: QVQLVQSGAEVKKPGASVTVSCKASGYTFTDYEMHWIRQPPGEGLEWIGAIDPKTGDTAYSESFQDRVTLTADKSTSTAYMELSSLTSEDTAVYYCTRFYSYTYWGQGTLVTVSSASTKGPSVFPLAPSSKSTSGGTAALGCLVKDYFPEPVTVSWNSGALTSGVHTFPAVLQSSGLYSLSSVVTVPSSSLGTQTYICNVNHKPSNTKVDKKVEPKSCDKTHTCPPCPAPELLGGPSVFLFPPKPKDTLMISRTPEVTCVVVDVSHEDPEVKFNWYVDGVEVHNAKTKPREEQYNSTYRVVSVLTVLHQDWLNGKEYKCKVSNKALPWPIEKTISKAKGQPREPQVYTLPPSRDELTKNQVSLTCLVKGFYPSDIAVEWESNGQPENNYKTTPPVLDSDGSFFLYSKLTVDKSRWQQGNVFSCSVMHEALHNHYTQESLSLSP
light: B1 light
notes: as for B11
B24: GpH7-B3 variant D265_10E/GpL16-k0 (antibody, human IgG1, kappa)
heavy: not shown
light: B1 light
notes: as for B11
B25: GpH7-B3 variant T335_05P/GpL16-k0 (antibody, human IgG1, kappa)
heavy: not shown
light: B1 light
notes: as for B11
B26: GpH7-B3 variant S337_09D/GpL16-k0 (antibody, human IgG1, kappa)
heavy: not shown
light: B1 light
notes: as for B11
B27: GpH7-B3 variant S337_06M/GpL16-k0 (antibody, human IgG1, kappa)
heavy: not shown
light: B1 light
notes: as for B11
B28: GpH7-B3 variant I336_08L/GpL16-k0 (antibody, human IgG1, kappa)
heavy: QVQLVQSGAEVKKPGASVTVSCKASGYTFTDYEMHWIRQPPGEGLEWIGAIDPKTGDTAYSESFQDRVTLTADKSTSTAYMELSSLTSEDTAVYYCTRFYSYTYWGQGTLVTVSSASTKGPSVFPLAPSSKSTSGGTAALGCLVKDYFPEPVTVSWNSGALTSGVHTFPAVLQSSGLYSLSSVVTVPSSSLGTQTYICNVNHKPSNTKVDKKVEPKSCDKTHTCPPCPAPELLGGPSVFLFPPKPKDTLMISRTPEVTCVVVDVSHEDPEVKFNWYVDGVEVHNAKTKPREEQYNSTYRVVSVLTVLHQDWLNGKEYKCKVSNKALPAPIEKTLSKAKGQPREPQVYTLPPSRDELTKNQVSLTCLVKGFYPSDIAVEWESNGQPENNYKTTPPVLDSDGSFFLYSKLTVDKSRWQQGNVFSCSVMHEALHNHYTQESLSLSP
light: B1 light
notes: as for B11
B29: GpH7-B3 variant A330_19Q/GpL16-k0 (antibody, human IgG1, kappa)
heavy: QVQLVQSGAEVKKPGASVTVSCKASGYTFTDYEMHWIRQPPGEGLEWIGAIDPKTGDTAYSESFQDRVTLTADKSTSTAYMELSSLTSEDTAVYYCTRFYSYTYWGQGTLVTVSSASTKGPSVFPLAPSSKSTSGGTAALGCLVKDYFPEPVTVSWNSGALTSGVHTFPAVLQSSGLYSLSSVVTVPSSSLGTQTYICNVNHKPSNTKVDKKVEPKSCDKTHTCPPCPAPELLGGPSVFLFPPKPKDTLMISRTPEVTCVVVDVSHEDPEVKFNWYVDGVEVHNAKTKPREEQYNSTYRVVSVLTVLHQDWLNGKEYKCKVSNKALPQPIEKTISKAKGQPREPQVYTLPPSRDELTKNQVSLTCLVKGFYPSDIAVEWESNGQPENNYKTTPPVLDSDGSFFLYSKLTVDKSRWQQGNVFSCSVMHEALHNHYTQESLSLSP
light: B1 light
notes: as for B11
B30: GpH7-B3 variant H268_09D/GpL16-k0 (antibody, human IgG1, kappa)
heavy: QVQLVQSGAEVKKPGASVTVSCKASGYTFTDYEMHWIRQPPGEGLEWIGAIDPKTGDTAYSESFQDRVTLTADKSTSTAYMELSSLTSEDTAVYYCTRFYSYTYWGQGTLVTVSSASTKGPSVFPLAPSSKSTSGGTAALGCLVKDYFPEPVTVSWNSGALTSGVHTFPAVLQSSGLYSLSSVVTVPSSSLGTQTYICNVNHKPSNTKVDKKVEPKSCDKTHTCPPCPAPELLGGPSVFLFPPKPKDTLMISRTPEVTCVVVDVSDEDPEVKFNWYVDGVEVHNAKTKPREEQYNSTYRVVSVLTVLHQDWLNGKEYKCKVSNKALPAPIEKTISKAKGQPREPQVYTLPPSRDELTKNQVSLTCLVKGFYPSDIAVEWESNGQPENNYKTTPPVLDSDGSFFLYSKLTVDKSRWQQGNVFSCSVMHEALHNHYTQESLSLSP
light: B1 light
notes: as for B11
B31: GpH7-B3 variant S337_07I/GpL16-k0 (antibody, human IgG1, kappa)
heavy: not shown
light: B1 light
notes: as for B11
B32: GpH7-B3 variant S337_20W/GpL16-k0 (antibody, human IgG1, kappa)
heavy: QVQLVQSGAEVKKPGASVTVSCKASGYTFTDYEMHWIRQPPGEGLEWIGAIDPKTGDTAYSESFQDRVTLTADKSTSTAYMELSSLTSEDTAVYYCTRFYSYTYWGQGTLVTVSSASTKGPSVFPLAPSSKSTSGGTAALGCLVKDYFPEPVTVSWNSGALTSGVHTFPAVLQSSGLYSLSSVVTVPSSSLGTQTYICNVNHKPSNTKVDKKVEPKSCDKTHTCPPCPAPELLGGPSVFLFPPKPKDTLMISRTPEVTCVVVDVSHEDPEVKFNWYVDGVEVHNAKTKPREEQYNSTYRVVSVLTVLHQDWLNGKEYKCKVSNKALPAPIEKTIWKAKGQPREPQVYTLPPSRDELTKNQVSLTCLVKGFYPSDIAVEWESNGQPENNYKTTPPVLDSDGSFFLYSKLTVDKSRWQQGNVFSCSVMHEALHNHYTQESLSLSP
light: B1 light
notes: as for B11
B33: GpH7-B3 variant T335_12R/GpL16-k0 (antibody, human IgG1, kappa)
heavy: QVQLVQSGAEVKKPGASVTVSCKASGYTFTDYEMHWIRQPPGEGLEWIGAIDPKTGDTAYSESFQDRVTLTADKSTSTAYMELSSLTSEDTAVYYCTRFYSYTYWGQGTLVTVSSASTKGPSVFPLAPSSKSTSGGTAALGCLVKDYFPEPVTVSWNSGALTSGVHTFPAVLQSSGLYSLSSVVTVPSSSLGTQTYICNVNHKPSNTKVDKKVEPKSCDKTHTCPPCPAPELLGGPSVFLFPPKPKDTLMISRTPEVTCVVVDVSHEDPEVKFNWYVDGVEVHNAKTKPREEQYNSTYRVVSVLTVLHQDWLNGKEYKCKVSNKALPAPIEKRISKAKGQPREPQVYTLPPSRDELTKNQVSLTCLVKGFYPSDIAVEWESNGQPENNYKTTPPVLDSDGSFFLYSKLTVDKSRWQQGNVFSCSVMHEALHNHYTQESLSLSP
light: B1 light
notes: as for B11
B34: GpH7-B3 variant H268_01G/GpL16-k0 (antibody, human IgG1, kappa)
heavy: not shown
light: B1 light
notes: as for B11
B35: GpH7-B3 variant H268_18N/GpL16-k0 (antibody, human IgG1, kappa)
heavy: not shown
light: B1 light
notes: as for B11
B36: GpH7-B3 variant T335_10E/GpL16-k0 (antibody, human IgG1, kappa)
heavy: not shown
light: B1 light
notes: as for B11
B37: GpH7-B3 variant T335_08L/GpL16-k0 (antibody, human IgG1, kappa)
heavy: not shown
light: B1 light
notes: as for B11
B38: GpH7-B3 variant S337_08L/GpL16-k0 (antibody, human IgG1, kappa)
heavy: not shown
light: B1 light
notes: as for B11
B39: GpH7-B3 variant T335_07I/GpL16-k0 (antibody, human IgG1, kappa)
heavy: not shown
light: B1 light
notes: as for B11
B40: GpH7-B3 variant A330_01G/GpL16-k0 (antibody, human IgG1, kappa)
heavy: not shown
light: B1 light
notes: as for B11
B41: GpH7-B3 variant T335_09D/GpL16-k0 (antibody, human IgG1, kappa)
heavy: not shown
light: B1 light
notes: as for B11
B42: GpH7-B3 variant I336_11K/GpL16-k0 (antibody, human IgG1, kappa)
heavy: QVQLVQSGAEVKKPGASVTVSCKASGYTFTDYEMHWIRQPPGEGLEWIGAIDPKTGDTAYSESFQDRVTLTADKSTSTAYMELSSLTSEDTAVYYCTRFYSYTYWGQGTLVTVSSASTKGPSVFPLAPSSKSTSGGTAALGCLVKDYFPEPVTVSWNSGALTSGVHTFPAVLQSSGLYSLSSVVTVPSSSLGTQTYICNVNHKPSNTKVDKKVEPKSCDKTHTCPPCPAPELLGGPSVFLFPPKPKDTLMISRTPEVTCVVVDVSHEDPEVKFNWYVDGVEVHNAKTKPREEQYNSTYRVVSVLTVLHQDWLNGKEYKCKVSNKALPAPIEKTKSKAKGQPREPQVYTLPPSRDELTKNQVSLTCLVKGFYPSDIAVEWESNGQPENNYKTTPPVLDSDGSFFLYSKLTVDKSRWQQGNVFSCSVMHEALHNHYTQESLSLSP
light: B1 light
notes: as for B11
B43: GpH7-B3 variant I336_09D/GpL16-k0 (antibody, human IgG1, kappa)
heavy: not shown
light: B1 light
notes: as for B11
B44: GpH7-B3 variant S337_04F/GpL16-k0 (antibody, human IgG1, kappa)
heavy: not shown
light: B1 light
notes: as for B11
B45: GpH7-B3 variant A330_04F/GpL16-k0 (antibody, human IgG1, kappa)
heavy: not shown
light: B1 light
notes: as for B11

The target of one experiment is T1, FcγRIIa R (human, UniProt P12318 34-217).
T1 construct: extracellular domain; also called FcgRIIa R type; 2aR
T1 sequence (looked up): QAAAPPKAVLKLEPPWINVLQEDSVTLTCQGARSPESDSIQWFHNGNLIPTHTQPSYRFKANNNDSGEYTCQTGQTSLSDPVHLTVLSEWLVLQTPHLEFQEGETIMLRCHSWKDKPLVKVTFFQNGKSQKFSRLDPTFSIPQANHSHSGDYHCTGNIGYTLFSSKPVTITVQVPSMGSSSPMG
Kind of experiment: SPR (Biacore); He/Con_2aR divided by He/Con_2b (FcγRIIa R over FcγRIIb). In general terms: SPR reads the build-up and loss of mass on a sensor chip optically.
On to B1, for which the “He_2aR/2b (IIaR/IIb)” value was determined as 1.29 ratio.

For B2, the “He_2aR/2b (IIaR/IIb)” value is 1.21 ratio.

Take B3: the “He_2aR/2b (IIaR/IIb)” value stood at 1.3 ratio.

B4: the “He_2aR/2b (IIaR/IIb)” value stood at 1.21 ratio.

As to B5, the “He_2aR/2b (IIaR/IIb)” value is 1.34 ratio.

As to B6, the “He_2aR/2b (IIaR/IIb)” value came to 1.25 ratio.

Regarding B7, the “He_2aR/2b (IIaR/IIb)” value was 1.28 ratio.

Consider B8, for which the “He_2aR/2b (IIaR/IIb)” value was found to be 1.3 ratio.

In the case of B9, the “He_2aR/2b (IIaR/IIb)” value was 1.4 ratio.

For B10, the “He_2aR/2b (IIaR/IIb)” value is 1.34 ratio.

The target in another experiment is T2, FcγRIa (human, UniProt P12314 16-292).
T2 construct: extracellular domain; soluble His-tagged extracellular domain expressed in FreeStyle293 cells, used as analyte in Biacore; also called FcgRI; CD64
T2 sequence (P12314 16-292): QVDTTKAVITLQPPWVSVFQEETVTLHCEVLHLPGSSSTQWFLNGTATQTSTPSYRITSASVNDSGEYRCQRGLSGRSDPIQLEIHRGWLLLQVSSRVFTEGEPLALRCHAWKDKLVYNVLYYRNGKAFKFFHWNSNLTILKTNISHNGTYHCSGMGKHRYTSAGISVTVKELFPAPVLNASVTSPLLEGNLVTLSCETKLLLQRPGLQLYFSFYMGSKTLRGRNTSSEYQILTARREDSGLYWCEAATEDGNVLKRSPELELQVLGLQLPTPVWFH
The experiment can be described thus: SPR (Biacore), captured antibody, FcγRIa analyte; relative to GpH7-B3/GpL16-k0.
Consider B11, for which the Ho/Con_1a was 105 relative, control = 100.

Regarding B12, the Ho/Con_1a is 110 relative, control = 100.

Take B13: the Ho/Con_1a was 104 relative, control = 100.

As for B14, the Ho/Con_1a is 104 relative, control = 100.

Take B15: the Ho/Con_1a is 111 relative, control = 100.

On to B16, for which the Ho/Con_1a is 106 relative, control = 100.

As to B17, the Ho/Con_1a is 103 relative, control = 100.

B18: the Ho/Con_1a is 110 relative, control = 100.

As to B19, the Ho/Con_1a was 109 relative, control = 100.

Consider B20, for which the Ho/Con_1a was 108 relative, control = 100.

On to B21, for which the Ho/Con_1a is 112 relative, control = 100.

On to B22, for which the Ho/Con_1a is 105 relative, control = 100.

On to B23, for which the Ho/Con_1a is 108 relative, control = 100.

For B24, the Ho/Con_1a was 103 relative, control = 100.

Turning to B25, the Ho/Con_1a was 106 relative, control = 100.

With B26, the Ho/Con_1a is 106 relative, control = 100.

As to B27, the Ho/Con_1a was 102 relative, control = 100.

Consider B28, for which the Ho/Con_1a is 109 relative, control = 100.

For B29, the Ho/Con_1a was 106 relative, control = 100.

For B30, the Ho/Con_1a was 110 relative, control = 100.

B31: the Ho/Con_1a was 105 relative, control = 100.

Consider B32, for which the Ho/Con_1a is 104 relative, control = 100.

Turning to B33, the Ho/Con_1a was 106 relative, control = 100.

Consider B34, for which the Ho/Con_1a is 108 relative, control = 100.

B35: the Ho/Con_1a was 108 relative, control = 100.

For B36, the Ho/Con_1a is 108 relative, control = 100.

On to B37, for which the Ho/Con_1a was 105 relative, control = 100.

For B38, the Ho/Con_1a was 105 relative, control = 100.

In the case of B39, the Ho/Con_1a is 105 relative, control = 100.

With B40, the Ho/Con_1a was 106 relative, control = 100.

In the case of B41, the Ho/Con_1a is 107 relative, control = 100.

Turning to B42, the Ho/Con_1a is 107 relative, control = 100.

Consider B43, for which the Ho/Con_1a is 108 relative, control = 100.

With B44, the Ho/Con_1a is 105 relative, control = 100.

Turning to B45, the Ho/Con_1a is 107 relative, control = 100.

In another experiment the target is T1, FcγRIIa R. Kind of experiment: SPR (Biacore), captured antibody, FcγR as analyte; relative binding, control GpH7-A5/GpH7-B3/GpL16-k0 = 100.
Consider B1, for which the He/Con_2aR was 84 control = 100.

As to B2, the He/Con_2aR amounted to 96.2 control = 100.

Turning to B3, the He/Con_2aR was determined as 47.7 control = 100.

Molecule B4 had a He/Con_2aR of 95.8 control = 100.

B5 showed a He/Con_2aR of 76.5 control = 100.

As for B6, the He/Con_2aR came out at 99.6 control = 100.

B7 yielded a He/Con_2aR of 90.1 control = 100.

B8 came in with a He/Con_2aR of 94.3 control = 100.

Molecule B9 returned a He/Con_2aR of 67.8 control = 100.

B10 returned a He/Con_2aR of 16 control = 100.

A further experiment addresses T3, FcγRIIb (human, UniProt P31994 43-217).
T3 construct: extracellular domain; also called FcgRIIb; 2b
T3 sequence (looked up): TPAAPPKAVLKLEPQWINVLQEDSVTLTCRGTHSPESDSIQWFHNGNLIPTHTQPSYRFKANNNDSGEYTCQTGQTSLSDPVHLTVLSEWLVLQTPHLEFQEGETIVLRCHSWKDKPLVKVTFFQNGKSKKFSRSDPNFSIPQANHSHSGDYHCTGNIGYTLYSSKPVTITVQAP
The description is as above.
B1 registered a He/Con_2b of 65.4 control = 100.

Molecule B2 returned a He/Con_2b of 79.3 control = 100.

B3 yielded a He/Con_2b of 36.6 control = 100.

For the molecule B4, the He/Con_2b turned out to be 79.3 control = 100.

B5 displayed a He/Con_2b of 57.2 control = 100.

Regarding B6, the He/Con_2b turned out to be 79.5 control = 100.

For B7, the He/Con_2b is 70.6 control = 100.

B8 displayed a He/Con_2b of 72.8 control = 100.

The molecule B9 came in with a He/Con_2b of 48.3 control = 100.

As for B10, the He/Con_2b is 11.9 control = 100.
